PMC9368917

Biological target: T1, 3xFLAG-STM0347 (Salmonella enterica serovar Typhimurium (strain not stated in the given text)) (UniProt H9L417)
T1 sequence: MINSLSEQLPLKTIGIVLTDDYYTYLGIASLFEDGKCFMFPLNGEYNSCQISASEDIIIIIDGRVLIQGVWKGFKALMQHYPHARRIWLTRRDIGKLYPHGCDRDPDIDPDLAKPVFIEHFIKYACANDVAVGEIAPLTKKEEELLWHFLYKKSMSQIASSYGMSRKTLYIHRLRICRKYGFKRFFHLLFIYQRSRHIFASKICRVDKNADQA
Test: EMSA
Details: 10 mM Tris-HCl pH 8.3, 50 mM KCl, 1 mM MgCl2, 0.5 mM DTT, 0.5 mM EDTA, 50 ug/mL BSA, 0.2% glycerol; room temperature 20 min; 6% native PAGE in 1x TAE in ice …

CATCGCTCAAAACACTACCAGACACAGTATTCACCTGGAAAGGCTTTTTAATCAAAATGTTAGATGTAAGCAATTACGGACAGAAAAAATAGTAAAGTTTATGCCTCAAGTGTCGATAACCTGGATGACACAGGTAAGCCTGGCATAACATTGGTTATCAAAAACCTTCCAAAAGGAAAATTTTATGGCACAAGTAATCAACACTAACAGTCTGTCGCTGCTGACCCAGAATAACCTGAACAAATCCCAGTCCGCACTGGGCACCGCTATCGAGCGTCTGTCTTCTGGTCTGCGTATCAA (double strand) [fljB promoter fragment]
binding: no binding
